Data from the supplement of paper PMC7125110.
± gives the standard error. Variants at the floor of the assay were thinned out.

B1: glmS ribozyme (parent)
chain: AUAAAAGCGCCAGAACUACAGAAAUGUAGUUGACGAGGAGGAGGUUUAUCGAAUUUUCGGCGGAUGCCUCCAAA

What was measured:
Details in all cases: with glucosamine-6-phosphate
glucosamine-6-phosphate [1] = variants of: B1; assay: self-cleavage kobs at 40 uM GlcN6P; higher = faster cleavage; RNA array
Summary of the method: (§1)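 Sequenced MiSeq chips were the platform: E. coli RNA polymerase transcribed barcoded ribozyme variants on them in situ, and a hybridised Cy3 probe tracked these at 37 °C. After glucosamine-6-phosphate (40 μM to 10 mM) in HEPES/KCl/Mg(OAc)2 buffer was flowed in, tiles were imaged over ~14 h. Signals normalised to baseline and to non-cleaving reference variants were reduced to per-tile medians and fit to one- or two-exponential decays to obtain kobs. kcat and KM were derived through weighted Michaelis–Menten fits across concentrations.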

glucosamine-6-phosphate [2] = variants of: B1; assay: self-cleavage kobs at 160 uM GlcN6P; higher = faster cleavage; RNA array
Summary of the method: as §1

glucosamine-6-phosphate [3] = variants of: B1; assay: self-cleavage kobs at 640 uM GlcN6P; higher = faster cleavage; RNA array
Summary of the method: as §1

glucosamine-6-phosphate [4] = variants of: B1; assay: self-cleavage kobs at 2500 uM GlcN6P; higher = faster cleavage; RNA array
Summary of the method: as §1

glucosamine-6-phosphate [5] = variants of: B1; assay: self-cleavage kobs at 10000 uM GlcN6P; higher = faster cleavage; RNA array
Summary of the method: as §1

Variant | self-cleavage kobs at 40 uM GlcN6P (glucosamine-6-phosphate [1]) [s⁻¹] | self-cleavage kobs at 160 uM GlcN6P (glucosamine-6-phosphate [2]) [s⁻¹] | self-cleavage kobs at 640 uM GlcN6P (glucosamine-6-phosphate [3]) [s⁻¹] | self-cleavage kobs at 2500 uM GlcN6P (glucosamine-6-phosphate [4]) [s⁻¹] | self-cleavage kobs at 10000 uM GlcN6P (glucosamine-6-phosphate [5]) [s⁻¹]
G44C G59C C61A | < 1e-05 | < 1e-05 | < 1e-05 | < 1e-05 | < 1e-05
A6C A14C A36C G37C G40U G66C C67G | < 1e-05 | – | < 1e-05 | – | –
A36G G38A C58A | < 1e-05 | – | < 1e-05 | – | < 1e-05
G29C G60A | < 1e-05 | < 1e-05 | – | < 1e-05 | < 1e-05
C10A A39U | < 1e-05 | < 1e-05 | < 1e-05 | – | < 1e-05
A15U G44C U56C | < 1e-05 | < 1e-05 | < 1e-05 | < 1e-05 | < 1e-05
A42U U56C G60U | < 1e-05 | – | – | – | –
G7C A39G C70U | < 1e-05 | – | – | – | < 1e-05
C11A C34A U47G | < 1e-05 | – | – | < 1e-05 | –
G38C U49G A52C | < 1e-05 | – | – | < 1e-05 | –
G51C C58G | < 1e-05 | – | – | – | –
A33U G44U | < 1e-05 | < 1e-05 | < 1e-05 | – | < 1e-05
G37U U65G G66U | < 1e-05 | – | – | – | –
G35A G60A G66U C67U U69G | < 1e-05 | – | – | < 1e-05 | –
U46G U54C C71U | 8.18e-05 ± 1.8e-05 | – | – | 0.00226 ± 0.00098 | 0.00463 ± 0.0014
G32U G59A | < 1e-05 | < 1e-05 | < 1e-05 | – | –
G41U U54A | 2.71e-05 ± 1.1e-05 | 0.000104 ± 1.6e-05 | 0.000174 ± 2.6e-05 | 0.000426 ± 7.7e-05 | 0.000144 ± 1.7e-05
G13A G35C G41U A53C U54A | < 1e-05 | – | – | – | –
G29U A52C G66A | < 1e-05 | – | – | – | –
G51C G62A | < 1e-05 | – | < 1e-05 | < 1e-05 | < 1e-05
A12C C58A G63A | < 1e-05 | – | – | – | –
A6G A36C G63A | < 1e-05 | – | – | – | < 1e-05
C8U G38C G44U A48C | < 1e-05 | – | – | – | –
A48C G59U | < 1e-05 | < 1e-05 | < 1e-05 | < 1e-05 | < 1e-05
